assay: yeast display, Sf9 membrane polyspecificity reagent, FACS + sequencing; frameworks hold sequencing errors
Outline: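 Nanobodies from a synthetic yeast display library (Saccharomyces cerevisiae BJ5465), induced 36–48 hours with galactose, were stained 1 hour at 4 °C with 10% biotinylated, detergent-solubilized Sf9 membrane reagent, enriched on streptavidin microbeads, then FACS-sorted. Anti-HA (expression) and streptavidin (reagent binding) fluorescence set low and high (top ~1%) gates. Polyreactivity labels come from the gate of origin. Genes were colony-PCR amplified, MiSeq 2 × 250 sequenced and filtered by CDR length.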

Sequence | polyreactivity (PSR sort gate)
QVQLVESGGGLVQAGGSLRLSCAASGRIFLINAMGWYRQARGKEWELVAAIRTGGNTYYADSVKGRFTISRDNAKTTVYLQMNSLKPEDTAVYYCAAARIYPYYRWSGAHRSDVDYWGQGTQVTVSS | low polyreactivity
QVQLVESGGGLVQAGGSLRLSCAASGRIFLIYAMGWYRQAPGKDRELVAAISGRGGGTTYYADSVKGRFTISRDNAKITVYLQMNSLKPEATAVYYCAARNGGHKYYYWGQGTQVTVSS | high polyreactivity
QVQLVESGGGLVQAGGSLRLSCAASGRIFLPNAMGWYRQAPGKERELVATITRGGGSTYYADSVKGRFTISRDNAKNTVYLQMNSLKPEDTAVYYCAKGYLLYQGHLPYWHRGGYWGQGTQVTVSS | high polyreactivity
QVQLVESGGGLVQAGGSLRLSCAASGRIFLRNAMGWFRQAPGKERELVAAIRGSGGSTYYADSVKRRFTISRDHAKTTVYLQTNSLKPEDTPVYYCAVASYYRYSHTYGYWGQGTQVTVSS | high polyreactivity
QVQLVESGGGLVQAGGSLRLSCAASGRIFLRNDMGWYRQAPGKVRELVAGISSDGSTYYADSVKGRFTISRDNAKNTVYLQMTSLKPEDTAVYYCNAEDTPGAGDGNWGQGTQVTVSS | low polyreactivity
QVQLVESGGGLVQAGGSLRLSCAASGRIFLSNAMGWYRQAPGKERELVAAISLSGGRTYYADSVKGRFTISRDNAKNTVYLQMNSLKPEDTAVYYCAAEFYPIRYYGRYDYWGQGTQVTVSS | low polyreactivity
QVQLVESGGGLVQAGGSLRLSCAASGRIFLSYAIGWYRQAPGKERELVAAITSSGGSTYYADSVKGRFTISRDNAKNTVYFQMNSLKPEDTAVYYCAADYGDPRVNEYDYWGQGTQVTVSS | low polyreactivity
QVQLVESGGGLVQAGGSLRLSCAASGRIFLSYAMGWYRQAPGKERELVAAISQSGSSKYYADSVKGRFTISRDNAKNTVYLQMNSLKPEDTAVYYCAARTGRKYYYWGQGTQVTVST | high polyreactivity
QVQLVESGGGLVQAGGSLRLSCAASGRIFLSYAMGWYRQAPGNEREFVAAITSSGGSTSYADSVKGRFTISRDNAKNTVYLQMNSLKPEDTAVYYCNDRAYIFGQMKYDYWGQGTQVTVSS | low polyreactivity
QVQLVESGGGLVQAGGSLRLSCAASGRIFLTKAMGWYRQAPGKERELVADISRGGSTYADSVKGRFTISRDNAKNTVYLQMNSLKPEDTAVYYCAADEYSPGDSRTRYDYWGQGTQVTVSS | low polyreactivity
QVQLVESGGGLVQAGGSLRLSCAASGRIFLTNAMGWYRQAHGKERELVADISRGGSTYADSVKGRFTISRDNAKNTVYLQMNSLKPEDTAVYYCAADEYSPGDSRTRYDYWGQGTQVTVSS | low polyreactivity
QVQLVESGGGLVQAGGSLRLSCAASGRIFLVYAMGGSRQAPGKDRELVAAISWSTGSTYYADSVKGRFTISRDNAKNTVYLQMNSLKPEDTAVYYCAAEPELDEYEHDYWGQGTQVTVSS | low polyreactivity
QVQLVESGGGLVQAGGSLRLSCAASGRIFLVYAMGWSRPAPGKERELVAAISYSGGRTYYADSVKGRFTISRDNAKNTVYLQMNSLKPEDTAVYYCAASPRYSYLAQGLDYDYWGQGTQVTVSS | high polyreactivity
QVQLVESGGGLVQAGGSLRLSCAASGRIFLWYAMGWSRQAPGKERELVAGISSGASTYYADSVKGRFTISRDNAKNTVYLQMNSLKPEDTAVYYCAAPYDRLTGWSRYDYWGQGTQVTVSS | high polyreactivity
QVQLVESGGGLVQAGGSLRLSCAASGRIFLWYAMGWYRQAPGKERELVAAISSGGSTKYADSVKGRFTISRDNAKNTVYLQMNSLKPEDTAVYYCAATRKYSYVTYYYWGQGTQVTVSS | high polyreactivity
QVQLVESGGGLVQAGGSLRLSCAASGRIFLWYAMGWYRQAPGKERELVASITRSGVTTYYADSVKGRFTISRDNAKNTVYLQMNSLKPEDTAVYYCAAELYGWSGDTNDYWGQGTHVTVSS | low polyreactivity

Sequence | polyreactivity (PSR sort gate)
QVQLVESGGGLVQAGGSLRLSCAASGRIFLYNAMAWYRQAPGKERELVASISSGDTTNYADSVKGRFTISRDNAKNTVYLQMNSLKPEDTAVYYCNAEYGTPYSWFDYWGQGTQVTVSS | low polyreactivity
QVQLVESGGGLVQAGGSLRLSCAASGRIFLYNAMGWYRQAPGKEREFVATISYSGGRTNYADSVKGRFTISRDNAKNTVYLQMNSLKPEDTAVYYCAARWPWFYAHAYDYWGQGTQVTVSS | high polyreactivity
QVQLVESGGGLVQAGGSLRLSCAASGRIFLYNAMGWYRQAPGKERELVASISSGDTTNYADSVKGRFTISRDNAKKTVYLQMNSLKPEDTAVYYCAADGQYSVIVKYDSWGQGTQVTVSS | low polyreactivity
QVQLVESGGGLVQAGGSLRLSCAASGRIFLYYTMGWYRQAPGKERELVADITWRGGSTYYADSVKGRFTISRDNAKNTVYLQMNSLKPVDTAVYYCNAVSVSSNRSDYWGQGTQVTVSS | low polyreactivity
QVQLVESGGGLVQAGGSLRLSCAASGRIFLYYTMGWYRQAPGKERELVATIRSGDSTNYADSVKGRFTISRDNAKNTVYLQMNSLKPEDTAVYYCAADWDIFQQGANGAPYDYWGQGTQVTVSS | low polyreactivity
QVQLVESGGGLVQAGGSLRLSCAASGRIFNANAMGWYRHAPGKERELVAAISSSGGSTYYADSVKGRFTISRDNAKNTVYLQMNSLNPEDTAVYYCNADWGWRYSSDFDYWGQGTQVTVSS | low polyreactivity
QVQLVESGGGLVQAGGSLRLSCAASGRIFNAYAMGWYRQAPGKERELVAAISRSGGRTYYADSVKGRFTISRDNAKNNVYLQMNILKPEDTAVYYCAKDFFEHSPVSHTYSSSKYDYWGQGTQVTVSS | low polyreactivity
QVQLVESGGGLVQAGGSLRLSCAASGRIFNEYGMGWYRQAPGKERELVAAITDGTTTYYADSVKGRFTISRDNAKNTVYLQMNSLKPEDTAVYYCAASSTWYGYYIFVFRAYDYWGQGTQVTVSS | low polyreactivity
QVQLVESGGGLVQAGGSLRLSCAASGRIFNFYAMGWYRQAPGKERELVASITGSTGSTYYADSVKGRFTISRDNAKNTVYLQMNSLKPEDTAVYYCNTYRVTRDYYWGQGTQVTVSS | low polyreactivity
QVQLVESGGGLVQAGGSLRLSCAASGRIFNFYAMGWYRQAPGKERELVASITSGGRTSYADSVKGRFTISRDNAKNTVYLQMNSLKPEDTAVYYCAAKSPLKTYYFTSFRYYYWGQGTQVTVSS | high polyreactivity
QVQLVESGGGLVQAGGSLRLSCAASGRIFNGYAMGWYRQAPGKERELVASITSAGSTYFADSVTGRVTISRDNAKNTVYVQMNRLKPEDTAVYYCAADSYSVYYYTYDSWGQGTQVTVSS | low polyreactivity
QVQLVESGGGLVQAGGSLRLSCAASGRIFNGYPIGWYIQAPGKEREFVATISRSGGCTYYADSVKGRFTISRDNAKNTVYLQMISLKPEDTAVYYCAKTYPAKWEYDYWGQGTQVTVSS | low polyreactivity
QVQLVESGGGLVQAGGSLRLSCAASGRIFNIYAMGWYRQAPGKERELVAAIRWNGGSTYYADSVKGRFTISRDNAKNTVYLQMNSLKPEDTAVYYCAARHPLYRVQHEYWGQGTQVTVSS | low polyreactivity
QVQLVESGGGLVQAGGSLRLSCAASGRIFNKNAMGWYRQPPGKEREFVAAISRSGGRTYYADSVKGRFTISRDNAKNTVYLQMNSLKPEDPAVYFCAAEYRGVPRVVVDYDYWGQGTQVTVSS | high polyreactivity
QVQLVESGGGLVQAGGSLRLSCAASGRIFNLYAMGWYRQAPGKERELVAAIRGRGTSTYYADSVKGRFTISRDNAKNTVYLQMNSLKPEDTAVYYCATTSRELGELRIFDYWGQGTQVTVSS | low polyreactivity
